Tests used:
[1] = target: deglycosylated 92TH023 V1/V2 tag scaffold (HIV-1 92TH023 (subtype A/E)); assay: static cell adhesion assay
[2] = target: synthetic cyclic 42 amino acid V2 peptide of 92TH023 gp120 (HIV-1 92TH023 (subtype A/E)); assay: static cell adhesion assay; RPMI8866 cells on immobilised MAdCAM or cV2 92TH023 in buffer with a high concentration of MgCl2
[3] = target: recombinant A244 gp120 (subtype A/E, GSID) (HIV-1 A244 (subtype A/E)); assay: SPR
[4] = target: recombinant SIVmac766 gp120 (SIVmac766); assay: SPR
[5] = target: synthetic cyclic 42 amino acid V2 peptide of 92TH023 gp120 (HIV-1 92TH023 (subtype A/E)); assay: SPR
[6] = target: T1, recombinant soluble α4β7 heterodimer (human, UniProt P13612 35-977; P26010 20-723, disulfide bond joining the acid-base clasp | disulfide bond joining the acid-base clasp); assay: SPR; settings: both partners purified
T1 construct: also called integrin α4β7; not shown: acid coiled-coil clasp peptide, C-terminal, kept; base coiled-coil clasp peptide, C-terminal, kept

Molecule: integrin α4β7 expressed on the surface of RPMI8866 cells (from UniProt P13612 34-1032; P26010 20-798) (receptor)
- fold adhesion against deglycosylated 92TH023 V1/V2 1FD6 [1]: 5 fold
- fold reduction of adhesion in MgCl2 against MnCl2 [2]: 2.5 fold

Molecule: recombinant soluble α4β7 heterodimer (from UniProt P13612 35-977; P26010 20-723) (complex)
- Kd [3]: 7.14 nM
- Kd [4]: 104 nM
- Kd [5]: 1.15 nM

Molecule: soluble α4β1 (from UniProt P13612 35-977; P05556 21-728) (complex)
- Kd [5]: 9710 nM

B1: MAdCAM-Ig fusion protein (Fc fusion, human, UniProt Q13477 19-317, looked up)
chain: QSLQVKPLQVEPPEPVVAVALGASRQLTCRLACADRGASVQWRGLDTSLGAVQSDTGRSVLTVRNASLSAAGTRVCVGSCGGRTFQHTVQLLVYAFPDQLTVSPAALVPGDPEVACTAHKVTPVDPNALSFSLLVGGQELEGAQALGPEVQEEEEEPQGDEDVLFRVTERWRLPPLGTPVPPALYCQATMRLPGLELSHRQAIPVLHSPTSPEPPDTTSPESPDTTSPESPDTTSQEPPDTTSPEPPDKTSPEPAPQQGSTHTPRSPGSTRTRRPEISQAGPTQGEVIPTGSSKPAGDQ
notes: also called Hu-MAdCAM-Ig; MAdCAM-1
- Kd [6]: 0.597 nM

From publication PMC6130882 (PLoS Pathogens, 2018)
